Measurements reported in patent publication US20160031999A1 (CSL, published 2016).
Positions count from the first letter of the chain named.

B1: hu8E2-TS-14 (antibody, V domains shown)
VH: EVQLLESGGGLVQPGGSLRLSCAASGFTFSWYSMTWVRQAPGKGLEWVSSIVPSGGHTQYADSVKGRFTISRDNSKNTLYLQMNSLRAEDTAVYYCAKGPGWGSFDLWGRGTLVTVSS
VL: DIQMTQSPSSLSASVGDRVTITCQASQDINNYLNWYQQKPGKAPKLLIYDASNLQTGVPSRFSGSGSGTDFTFTISSLQPEDIATYYCQQHDNQSPTFGPGTKVDIK
B2: hu8E2-TS-2 (antibody, V domains shown)
VH: B1 VH
VL: B1 VL with H91A, D92E, N93D
B3: hu8E2-TS-4 (antibody, V domains shown)
VH: B1 VH
VL: B1 VL with D92E, N93F
B4: hu8E2-TS-6 (antibody, V domains shown)
VH: B1 VH
VL: B1 VL with Q89E, H91F, D92E, N93S
B5: hu8E2-TS-7 (antibody, V domains shown)
VH: B1 VH
VL: B1 VL with D92E
B6: hu8E2-TS-9 (antibody, V domains shown)
VH: B1 VH
VL: B1 VL with H91A, D92E, N93E
B7: hu8E2-TS-17 (antibody, V domains shown)
VH: B1 VH
VL: B1 VL with Q89S, H91F, D92E, N93S
B8: hu8E2-TS-20 (antibody, V domains shown)
VH: B1 VH
VL: B1 VL with H91N, D92E, N93S
B9: hu8E2-TS-21 (antibody, V domains shown)
VH: B1 VH
VL: B1 VL with H91S, D92E, N93S
B10: hu8E2-TS-22 (antibody, V domains shown)
VH: B1 VH
VL: B1 VL with H91F, D92E, N93T
B11: hu8E2-TS-29 (antibody, V domains shown)
VH: B1 VH
VL: B1 VL with H91S, D92E, N93E
B12: hu8E2-TS-32 (antibody, V domains shown)
VH: B1 VH
VL: B1 VL with Q89T, H91W, D92E, N93T
B13: hu8E2-TS-49 (antibody, V domains shown)
VH: B1 VH
VL: B1 VL with H91Y, D92E, N93S, S95A, T97E
B14: hu8E2-TS-51 (antibody, V domains shown)
VH: B1 VH
VL: B1 VL with H91Y, D92E, N93S, S95W, T97F
B15: hu8E2-TS-55 (antibody, V domains shown)
VH: B1 VH
VL: B1 VL with H91Y, D92E, N93T, S95T, T97A
B16: hu8E2-TS-57 (antibody, V domains shown)
VH: B1 VH
VL: B1 VL with H91Y, D92E, N93T, S95M, T97L
B17: hu8E2-TS-58 (antibody, V domains shown)
VH: B1 VH
VL: B1 VL with H91Y, D92E, N93T, S95Q, T97F
B18: hu8E2-TS-63 (antibody, V domains shown)
VH: B1 VH
VL: B1 VL with H91Y, N93T, S95Q, T97N
B19: hu8E2-TS-64 (antibody, V domains shown)
VH: B1 VH
VL: B1 VL with H91Y, D92E, N93S, S95W, T97Q
B20: hu8E2-TS-66 (antibody, V domains shown)
VH: B1 VH with S30A, Y32W, M34I, T35A
VL: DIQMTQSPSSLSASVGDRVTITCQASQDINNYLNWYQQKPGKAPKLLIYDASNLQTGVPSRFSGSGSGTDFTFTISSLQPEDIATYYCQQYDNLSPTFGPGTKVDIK
B21: hu8E2-TS-69 (antibody, V domains shown)
VH: B1 VH with S30G, Y32W, M34V
VL: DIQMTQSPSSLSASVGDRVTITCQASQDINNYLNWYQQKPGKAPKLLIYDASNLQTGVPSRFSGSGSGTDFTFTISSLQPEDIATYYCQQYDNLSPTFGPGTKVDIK
B22: hu8E2-TS-71 (antibody, V domains shown)
VH: B1 VH with S30W, W31R, Y32W, M34T
VL: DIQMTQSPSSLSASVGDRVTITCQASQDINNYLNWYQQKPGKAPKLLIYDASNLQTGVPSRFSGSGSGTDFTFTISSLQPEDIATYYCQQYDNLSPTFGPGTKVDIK
B23: hu8E2-TS-76 (antibody, V domains shown)
VH: B1 VH with S30W, W31R, Y32W, M34I
VL: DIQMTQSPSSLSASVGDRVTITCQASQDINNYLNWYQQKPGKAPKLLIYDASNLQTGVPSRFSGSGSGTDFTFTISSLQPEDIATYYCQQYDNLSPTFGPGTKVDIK
B24: hu8E2-TS-79 (antibody, V domains shown)
VH: B1 VH with S30A, Y32F, M34V
VL: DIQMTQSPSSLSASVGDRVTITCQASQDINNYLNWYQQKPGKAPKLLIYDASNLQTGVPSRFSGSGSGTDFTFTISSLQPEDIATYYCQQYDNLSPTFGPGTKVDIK
B25: hu8E2-TS-82 (antibody, V domains shown)
VH: B1 VH with S30W, W31R, Y32W, M34V
VL: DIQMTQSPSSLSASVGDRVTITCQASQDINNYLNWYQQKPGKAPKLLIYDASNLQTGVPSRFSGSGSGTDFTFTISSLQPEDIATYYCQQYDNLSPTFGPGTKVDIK
B26: hu8E2-TS-88 (antibody, V domains shown)
VH: B1 VH with S30W, W31R, Y32W, M34T
VL: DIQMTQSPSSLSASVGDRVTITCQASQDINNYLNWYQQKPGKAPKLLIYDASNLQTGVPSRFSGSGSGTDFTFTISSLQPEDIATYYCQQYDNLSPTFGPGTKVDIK
B27: hu8E2-TS-89 (antibody, V domains shown)
VH: B1 VH with S30W, W31R, Y32W, M34I
VL: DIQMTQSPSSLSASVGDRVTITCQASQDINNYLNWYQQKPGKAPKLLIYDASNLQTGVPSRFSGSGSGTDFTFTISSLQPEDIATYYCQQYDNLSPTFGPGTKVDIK
B28: hu8E2-TS-91 (antibody, V domains shown)
VH: B1 VH with S30G, Y32W, M34L
VL: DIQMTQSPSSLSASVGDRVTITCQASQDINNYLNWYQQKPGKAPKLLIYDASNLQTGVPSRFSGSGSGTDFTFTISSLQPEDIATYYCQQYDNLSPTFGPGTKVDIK
B29: hu8E2-TS-92 (antibody, V domains shown)
VH: B1 VH with Y32W, M34I
VL: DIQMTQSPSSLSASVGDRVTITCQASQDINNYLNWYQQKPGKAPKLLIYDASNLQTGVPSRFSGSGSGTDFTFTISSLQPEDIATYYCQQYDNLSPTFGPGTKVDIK
B30: hu8E2-TS-97 (antibody, V domains shown)
VH: B1 VH with S54W, G55A, G56D, H57Y
VL: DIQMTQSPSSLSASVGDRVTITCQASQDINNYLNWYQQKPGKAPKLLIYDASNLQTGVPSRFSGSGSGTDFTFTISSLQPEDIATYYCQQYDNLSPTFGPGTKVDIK
B31: hu8E2-TS-101 (antibody, V domains shown)
VH: B1 VH with S54W, G56D, H57L
VL: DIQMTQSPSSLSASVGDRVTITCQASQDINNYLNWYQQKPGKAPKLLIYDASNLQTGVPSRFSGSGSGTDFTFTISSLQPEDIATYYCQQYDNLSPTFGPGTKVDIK
B32: hu8E2-TS-103 (antibody, V domains shown)
VH: B1 VH with S54Y, G56D, H57L
VL: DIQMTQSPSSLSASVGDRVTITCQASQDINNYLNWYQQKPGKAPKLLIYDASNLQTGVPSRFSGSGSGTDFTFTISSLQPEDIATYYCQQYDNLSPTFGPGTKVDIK
B33: hu8E2-TS-104 (antibody, V domains shown)
VH: B1 VH with S54W, G56T, H57I
VL: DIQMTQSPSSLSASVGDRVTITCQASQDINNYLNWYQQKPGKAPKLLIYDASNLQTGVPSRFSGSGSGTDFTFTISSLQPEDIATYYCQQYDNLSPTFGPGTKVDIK
B34: hu8E2-TS-107 (antibody, V domains shown)
VH: B1 VH with S54W, G56D, H57F
VL: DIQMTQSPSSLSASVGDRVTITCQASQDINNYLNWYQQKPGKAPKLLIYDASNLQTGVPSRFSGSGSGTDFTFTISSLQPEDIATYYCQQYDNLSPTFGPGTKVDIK
B35: hu8E2-TS-108 (antibody, V domains shown)
VH: B1 VH with S54W, G56T, H57L
VL: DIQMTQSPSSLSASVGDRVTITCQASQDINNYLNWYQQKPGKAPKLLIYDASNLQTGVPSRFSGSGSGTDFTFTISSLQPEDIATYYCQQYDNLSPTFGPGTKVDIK

Columns and labels:
[1] = biological target: T1, human IL-11Rα on transfected cells (human, UniProt Q14626 23-422); test: cell-based or functional assay
T1 sequence: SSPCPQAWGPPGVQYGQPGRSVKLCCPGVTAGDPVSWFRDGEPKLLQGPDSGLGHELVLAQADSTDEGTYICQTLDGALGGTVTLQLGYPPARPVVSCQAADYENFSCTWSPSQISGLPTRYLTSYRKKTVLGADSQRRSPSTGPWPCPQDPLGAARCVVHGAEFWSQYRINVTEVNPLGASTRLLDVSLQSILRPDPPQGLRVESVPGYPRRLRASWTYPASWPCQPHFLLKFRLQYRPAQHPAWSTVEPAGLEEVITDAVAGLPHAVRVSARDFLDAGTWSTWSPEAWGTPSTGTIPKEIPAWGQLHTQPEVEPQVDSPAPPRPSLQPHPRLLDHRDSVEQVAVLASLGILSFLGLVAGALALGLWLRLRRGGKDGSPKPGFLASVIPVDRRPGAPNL

[2] = biological target: T2, human IL-11Rα (form used in the assay not stated) (human, UniProt Q14626 23-363, limits assumed); test: Biacore, pH 8.5, 37°C
T2 construct: also called hIL-11R; hIL-11Rα
T2 sequence: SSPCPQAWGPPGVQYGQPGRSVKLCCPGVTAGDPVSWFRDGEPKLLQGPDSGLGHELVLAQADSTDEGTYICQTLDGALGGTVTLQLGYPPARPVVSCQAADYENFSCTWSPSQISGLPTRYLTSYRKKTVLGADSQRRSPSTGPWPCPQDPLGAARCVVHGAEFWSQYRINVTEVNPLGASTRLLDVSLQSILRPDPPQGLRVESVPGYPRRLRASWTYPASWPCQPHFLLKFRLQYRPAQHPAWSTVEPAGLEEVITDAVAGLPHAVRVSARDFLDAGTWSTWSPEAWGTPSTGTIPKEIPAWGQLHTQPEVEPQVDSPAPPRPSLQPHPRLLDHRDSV

| Binder | Fold increase in potency relative to 8E2 [1] | IC50 [1] | Kd [2] |
| --- | --- | --- | --- |
| B1 | 1.6 fold | 0.52 µg/mL | 0.342 nM |
| B2 | 7.9 fold | 0.26 µg/mL | 0.529 nM |
| B3 | 6.6 fold | 0.31 µg/mL | 0.295 nM |
| B4 | 1.4 fold | 0.41 µg/mL | 0.289 nM |
| B5 | 3.3 fold | 0.63 µg/mL | 0.108 nM |
| B6 | 3.1 fold | 0.68 µg/mL | 2.29 nM |
| B7 | 2.3 fold | 0.35 µg/mL | 0.39 nM |
| B8 | 0.6 fold | 1.3 µg/mL | 0.284 nM |
| B9 | 2.7 fold | 0.31 µg/mL | 0.23 nM |
| B10 | 2 fold | 0.4 µg/mL | 0.838 nM |
| B11 | 2.5 fold | 0.33 µg/mL | 1.06 nM |
| B12 | 2.4 fold | 0.41 µg/mL | 9.56 nM |
| B13 | 5.2 fold | 0.19 µg/mL | 1.5 nM |
| B14 | 3.6 fold | 0.28 µg/mL | 0.455 nM |
| B15 | 4.8 fold | 0.21 µg/mL | 0.483 nM |
| B16 | 3.9 fold | 0.25 µg/mL | 0.658 nM |
| B17 | 6 fold | 0.23 µg/mL | 0.957 nM |
| B18 | 5.1 fold | 0.27 µg/mL | 0.642 nM |

| Binder | Fold increase in potency relative to 8E2 [1] | IC50 [1] | Kd [2] |
| --- | --- | --- | --- |
| B19 | 5.4 fold | 0.26 µg/mL | 0.636 nM |
| B20 | 0.5 fold | 2.84 µg/mL | 7.46 nM |
| B21 | 0.9 fold | 1.46 µg/mL | 3.56 nM |
| B22 | 3.8 fold | 0.29 µg/mL | 2.49 nM |
| B23 | 3.4 fold | 0.32 µg/mL | 2.73 nM |
| B24 | 5.3 fold | 0.21 µg/mL | 2.13 nM |
| B25 | 4.3 fold | 0.26 µg/mL | 2.05 nM |
| B26 | 3 fold | 0.36 µg/mL | 2.25 nM |
| B27 | 1.4 fold | 0.12 µg/mL | 4.5 nM |
| B28 | 1.3 fold | 0.34 µg/mL | 4.73 nM |
| B29 | 2.3 fold | 0.18 µg/mL | 3.2 nM |
| B30 | 1.6 fold | 0.26 µg/mL | 1.22 nM |
| B31 | 2.1 fold | 0.19 µg/mL | 0.785 nM |
| B32 | 4.5 fold | 0.33 µg/mL | 0.497 nM |
| B33 | 5.2 fold | 0.28 µg/mL | 0.995 nM |
| B34 | 7.4 fold | 0.2 µg/mL | 1.29 nM |
| B35 | 12.7 fold | 0.12 µg/mL | 1.93 nM |
